Measured values from the domain aggregation screens of Martell et al. (2025).

Assay: soluble fraction after stress (log2 fold change); higher = more stays soluble; pooled small domains, quantitative proteomics
Conditions: stress: 75 degC
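Note: 20 min heating vs room temperature control held 20 min.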

| Sequence | soluble fraction (log2) |
| --- | --- |
| HMGMESFWNRVANLLNTSTVVELAQILDVKRSTLSSWIHSDRRPPMEVLLKITRLTGVDIHRLE | -2.59 |
| HMGMETQLSPKEKSIYTIIQNRPNIQSGEVSEKLAIPLPTVKRILSDLINKGLIEKQGSGRNVSYTI | 0.338 |
| HMGMFNENLRFLRQKRQMSQQAFASILGIPRTTYSEYEKGNTEPNLKLLIRLSELLDVSLDNLISDDLTHN | -2.82 |
| HMGMKTSQKLARQREIVRLIRAQTIRTQAELADALRERAFPVSQPTLSKDIAELGLIKVPLPDSGYRYQLP | -1.73 |
| HMGMNKEHFIIELKIYLKALNPKDQAIILAKYKALFDARVAEGETEEQVAKSLGKPRVIAEEILKEQGIE | -3.26 |
| HMGMSMNEFLNNRLEQLAVEAVDKSSLGEEIFFYAEPATINLFKDAVDEDEYKVVFPVLKSIIEVEQKLSR | -1.24 |
| HMGMTAPIPGVVLKVSVLPGQKVERGDELLTIEAMKMFNVMRSPSSGTIATVHIKDGDRVVQGQPLVTFA | -0.555 |
| HMGMTTSILDDVIGMGPKRKKALLKAFGSFGALRNATLEEIKQTHTVPEQVAEDVYAVLVQYNSKSE | -0.681 |
| HMGMVKLNEEYLEKVKKHRKELHITQLQISKKLGWSLSRYQRFESGFYKEIEDDAPKKIKEEFGIDYSLL | -0.726 |
| HMGNGALLTLTVKERQVIQLVAEGKSNKQIARDLNVTPETIKSHMKNIFAKLKVDNRAQAAVMVQQ | -2.16 |
| HMGNGDTNERIATLMQILAKQESIINQYGLENPVVSPQMYVRTLKKVVELSGFKDASSYFADIPDGWKA | 0.0405 |
| HMGNIADARRDASYVFLIGEWAKSSNLTEKKLAGLIQSNHLDIKYGITVTDVIADIRKYKNDPTYNPF | -2.19 |
| HMGNIKVPSVMGMTLEGAEKVAKDNGAVIEVLEYKESTEEDGTIIEQSPKADMTVATLEKISVVISGK | 0.161 |
| HMGNIYKALLGKLEKQLGFLPEGTKLPPEQELAEKFGVSKPTLRRALAELAVRGIIVKQNGIGSVVAGS | -0.55 |
| HMGNKKLVLKLSKKLIKIPSFLNIYSVKLTKNGRELEINLDKSQNEAIDIINLIKKNNISFLEFDIKKR | -1.43 |
| HMGNLIIFYDAQTGSAPLLKAVKTSGATLVYEYKNLHGIAIRPSSKTSIEDAIAYFKKVNGVLSVE | -3.77 |
| HMGNPSGLPLPRFASTRSEPINVRVGPGQKYDIAWTYLKSGIPVEIIQEFDTWRKIRDFDGAEGWIHQNLL | -1.22 |
| HMGNSRNDQDLQTQIIKILAEGPASSRTLIETLTIEDEAALLKTLKRLLMNKKISLTPSNLYKL | -1.06 |
| HMGPAAGVVEKYNLAHLSTGEMIRKEIAEGSDFGKMAAGIINKGELLSDEFVVALIENSIEHHKNVDGFLF | -0.195 |
| HMGPAVGAIRVEGNKRVEPETVRTYLTFNVGDPYDLAKVDESLKALFATGLFQDVRIRREGNTVVIVVVEN | -0.701 |
| HMGPAYQTQRQEAFAALSEIAAKNPQLMQVAGDLVFRAADFPMADELADRLAKTLPPQLQDKKGQP | -0.455 |
| HMGPEISEDAKVVFDRLKNHDEILLNNFKSEFDLSNKKWDKIIKELRGNDLISIIKSEDGNLFIKP | -0.125 |
| HMGPELGENEKLIFDIIKKESKMELGILKAQVDLSNKKWDKALKGLATHGLTKVNKTDDGLFIELI | -0.555 |
| HMGPIITKTYNLSYATARDVNDIIKSKKSARGDIVIDTRTNSLIVSDVQEKIDLIDEIVATL | -0.368 |
| HMGPLSDRSVADWLLRLGLADTANNRLLLQVMHAAGLPLERTAVRAMRETAAGRPEGTDAREWLQAAAAAQ | -0.571 |
| HMGPNSVPDLRGKSLRQAMKMVNDLELKAIFEGEGIVVGQVPAPGKPVPETKILKITLSLEPY | -1.58 |

| Sequence | soluble fraction (log2) |
| --- | --- |
| HMGPPAVGSKLQDARKAQQLSLDELSKRAGVSKSMLSEVERNQANPTVGVLWRLATALGISLTDLLG | -1.11 |
| HMGPPLISLDDGLAKGFGVGVGDTLTINILGRRITATIASLREIDWQSLRFDFAVVLSPGVLEGA | 0.237 |
| HMGPRKAGSEATRQKILDAAEILFAERGFHSVSVRDITTEAGVDVALINYHFGSKQLLFETVFMRR | -0.32 |
| HMGPRPLPAEFTHPSLRALLALGTTRGGVTSADVKTALEAASVPAGRRAAVLRALDDNGIEVHTEP | -0.0155 |
| HMGPSEVTLDNFVGKNYTDVVNDTSYQFTFKKEEKSDQTHAAGIIIAQSPKKGIKVKSNSTVTLTVSTG | 0.359 |
| HMGPVDFYQMFISELQHLAEKPVTVDALIESTQLHKSQLTEWLKRAVDDGVVKKLNRPARFQVKNK | 0.0567 |
| HMGPVRDLGLLESAAHRPTTALWGRDVYATIEKKAAALLDSLVRDRPLADGNKRLGWLAALV | 0.291 |
| HMGPYGAGSAAPAEDGSGPEGWTVKGNAKSMLYHTEGSPYYGRTNADVWFRDEESAEAAGFRRWDRK | -0.0366 |
| HMGQAELPYSEFLREVNNGQVKSVIIEGSEITGFYKTSGTSFNVIAPDDPKLVERLMAQGVEVRAQPA | 0.144 |
| HMGQDLEAFLLKAVGQLDQGDGVTLDALLKVAVSNGGFVREVAEAKLDDMLDAGTLDEPRFGWFRVGAT | -0.41 |
| HMGQDLSYYIKIVQNQQPVDPLTGEPKVLDYGEVIRQAQILQMLDTGDLDRDKAIGQLSMKDAL | 0.292 |
| HMGQELRFVIQDHEAGIRLDHYLTQQVEGYSRSHLRKLMDQGLITVDGSYRKAGYRLNVGDVIHVVIPPTR | -0.813 |
| HMGQELTPVERTALDIAARDGKVSTRILAQEAGIGLRTASKTLAALAERGLLTWHGTSRRDPQQHYTS | -0.0688 |
| HMGQISDESVLKEMVVQLIADNPKEVASYLGGKETLLQWFMGQVARATKGKADPQAVKQLLLDEFEKLK | 0.0498 |
| HMGQKETIVDLLKTNGTMTQLALAEAIYGDKNHGPNIYSVLMGRVNSGAVLRTGSQPAYYSLSG | 0.209 |
| HMGQKMLTIELQEKVNKMPDNLASYDLKLSADGMSLIYKYSLKSERTGITALLQELKNAGLVMRDLKTEQ | -0.641 |
| HMGQLSDREALTVLAREALVELPRAAGDYRNGRTAALQSLVGRVMRKTAGRGNPALLQEIFRSLL | -0.542 |
| HMGQLVVHQIKGEASRLDKFLVVNIPKYSRSVWREMINNGSVQVNGRVVKPHLLVKEGDIITWSS | -1.4 |
| HMGQLVYPAGVYDVNKSYITDSNSAPYVLDKTDNNYYVLNTQMTWKGTEQDNKTPSQSYEESGGSVWLLFD | -0.118 |
| HMGQPAVSSRDVAEQFGKEHRNVIQSIKNLIAENSALTFMFIEDTYTAGTGKKYPMYYMNRDGFTLLA | 0.337 |
| HMGQPGNWTSYVFKNSDTEPAKPTSSGPIPSGWNDAPTGVGIWWMSKATIDASTGKAGSWSTPIRVTGED | -0.0861 |
| HMGQSKNERMLELVELLNKASRSYYQDAQEIMSNYEYDRLYDELQNLEKELGITLSNSPTVN | -0.122 |
| HMGQVSDETGLARVVDALLAAHPDEVAKYRAGKTSLLGWFMGQVMKETRGQANPDLARALVLERLE | -0.342 |
| HMGQYSTTLDKIENSLFGFTYSNEAENTRINRIENKVYGKTSTSQTSTRIAKLKKDLSVDEMG | 0.111 |
| HMGREVVVPNLAGIEKEVALDLLKKNRLGGMITGTRFSSDFPAGQVIQQMPEAGSRVKVGKQVKLVLSEG | 0.207 |
| HMGRGSEDEQMRGLAVILAEQKQIMQTLGVENEVVKPEQYINTLKRMAELNGFKDTDQFFSIPQ | 0.26 |

| Sequence | soluble fraction (log2) |
| --- | --- |
| HMGRHSPLSIEQKEQLKTEIVALQQQRGGGRVTAVNIAELIQQKFNVVYNPNSLYKLLKQIGMSWV | -1.94 |
| HMGRKEIIVPNLLGKYAIEAGTILKNAGLLEGQAREENSDTYPAGQIMDQFPKANTPANENDKVDYVVSI | ≥ 1.04 |
| HMGRLEVDLVVPYDKYEAMNVIRAEGRILKEDHQGDGAHLKIQINETALWKLKRMLGEGYGQ | -0.13 |
| HMGRLPMNIVRAIVEHLDRHASYSEINRATGASKGFISKVAAAVEAASLTPEKFLLLNDEDIQNRITPGR | -0.739 |
| HMGRPTLEQLLDRAQAMGVPRERYAAYADRRWGRGWRVNPHGRGRAWDELDRYRNDPAGYLDKIEVELNQL | -0.341 |
| HMGRQVTVPNVTGMLVEEARAAISEAELWVDSPRAVQGEVTRQEPARGERLSPGQEVRIYTES | 0.204 |
| HMGRRSKAMLSSALDAVPGLGEMRRKALISQFGSLKKLRGATPEEIAAVPGIGPKLAAAVHEAVSG | -0.0903 |
| HMGRSTQVPGVEKMTYSQAVQLLHDHGFRVDIRDSLYRDDIKPGHVIEQFPKAKSIVKPGRKIFLYINAV | -1.43 |
| HMGRTGTVVVSPSLNVRTGPWGEIIGSLYNGNKVEIIGSSGDWYQISFGGKTAYVHSDYVVDGG | -1.26 |
| HMGSDAFDISKLNLVGKTKESAESLLKENGFSVDTKEEASDTAAKGTVISYSPTKPKNGERVTLTVSSGK | 0.385 |
| HMGSDQEAAMARQDRLSTLVDYVVERGSVHVDDIVADLGVSPATVRRDLDALAAQQLIIRTRGGATANHT | 0.034 |
| HMGSGKGAAHTILGISADASDDEIKAAWRKLVQENHPDKLVSQGLPDEFVQAATDRLRLINTAYQSMLNRP | -0.0948 |
| HMGSGLAAAEKIRKAHPEIKIVVATSLIDTQVLARAKAVGADSLWYKDGDEGTLMQVVRRTMAGDHIFP | -0.038 |
| HMGSIGAMLSSPELYGKLATNPATRGFLSQPDFIAMLTDVQKNPDKFGSYMSDPRMMQVLSVALG | -0.231 |
| HMGSIRDIIVQYLSKFDDPQPAAKIVEYVQQYRDTTESSIRSSMGSGDQFVQFSGGLYGLKDKTYAAWYSI | -0.916 |
| HMGSLKISNPVKDTLWIQGVDGLKSIEIYSSTGQLVKTILGNQGDVSSLPKGVYFLKINTPSESLTAKIIK | -1.28 |
| HMGSLPPPKDGTTIYVVKPGDSLWRISGKFFGNPLFWPRLWEINPNIDNPNKIYPGDVISLKP | 0.24 |
| HMGSLVKLQSAAELHQAGRSAEAVPILLEVLATNPRLVDGWEILANALEKLGRLDEALAALKKTVALSPPG | -1.55 |
| HMGSNENTIREYFDSLIASASKREIMDANPTMSQRTVERILQKLQAEGYVEKIGAARSTRYRRA | -0.0404 |
| HMGSQLYTLEVEADEKISLIENNPLLIQKIYLKDNNLFSYKIASSSKTEIASIEKELEKNPSIKRLETA | -0.086 |
| HMGSQQIEEGMRRLVASGALRPGASVPSVRDLARDLQVNPATVVRAYQRLVDAGLLVVRRGEGTFVAE | -1.77 |
| HMGSSLLSPKEREVLQLLAGNLSNKQIALAMGVSDETIKWHLRNLFGKLNAGGRKHLIDRARMLGLLAAA | -1.61 |
| HMGSVHDAATDRIREMILGGQFEPGERLRQDDLATSLGVSTMPVREALRQLQAEGLVVFYPRKGAVVAR | 0.168 |
| HMGTAEDYLLPRRAEILSIIRDHEFANFDLIRRRFLAVNERTLRYDLKKLSDLGLIKKLGKTRGVYYRAAK | -1.84 |
